Experiment [1] addresses T1, recombinant human PACAP/VIP R-2 receptor (human).
T1 chain: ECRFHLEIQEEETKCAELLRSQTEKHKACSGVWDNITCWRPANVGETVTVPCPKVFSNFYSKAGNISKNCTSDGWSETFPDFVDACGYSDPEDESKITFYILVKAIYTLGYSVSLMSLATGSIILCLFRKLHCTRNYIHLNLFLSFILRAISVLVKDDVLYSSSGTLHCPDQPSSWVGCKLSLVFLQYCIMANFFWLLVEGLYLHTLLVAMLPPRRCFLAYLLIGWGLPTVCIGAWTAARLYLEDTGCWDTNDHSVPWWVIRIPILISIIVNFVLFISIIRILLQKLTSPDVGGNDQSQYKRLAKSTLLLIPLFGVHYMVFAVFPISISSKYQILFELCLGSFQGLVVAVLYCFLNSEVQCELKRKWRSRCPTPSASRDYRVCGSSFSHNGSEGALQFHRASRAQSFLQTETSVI
Kind of experiment: competitive displacement of 125I-VIP on intact CHL cells expressing the receptor. On the technique in general: In a radioligand displacement assay an active substance lowers the binding of a labelled ligand.
Protocol for binding result: (§1) Each peptide concentration prepared in Hank's balanced salt solution containing 20 mM HEPES, pH 7.4, 0.5% BSA and 0.1 mM phenylmethylsulfonyl-fluoride (PMSF) was added in triplicates to intact cells. Following the incubation, the cells were washed two times with ice-cold PBS, lysed with 1N NaOH, and radioactivity measured in gamma counter.

In experiment [2] the target is T1, recombinant human PACAP/VIP R-2 receptor. Nature of the experiment: competitive displacement of 125I-VIP (44 pM) on intact CHL cells expressing the receptor.
Protocol: as §1
(§2) To further confirm the identity of the receptor, the cDNA was expressed in a chinese hamster lung (CHL) cell line.
Experiment [3] has the same target. Nature of the experiment: competitive displacement of 125I-PACAP-27 (44 pM) on intact CHL cells expressing the receptor.
Protocol: as §1
Experiment [4] shares this target. Nature of the experiment: competitive displacement of 125I-VIP (44 pM) on intact CHL cells expressing the receptor; complete displacement not obtainable.
Protocol: as §1, §2
Experiment [5] has the same target. Nature of the experiment: competitive displacement of 125I-VIP on intact CHL cells expressing the receptor; complete displacement not obtainable.
Protocol: as §1

Where no end group is shown, it is not given here.

The values that follow come from patent publication US5831051, “Receptor for peptide hormones involved in energy homeostasis, and method and compositions for use thereof” (The Rockefeller University, dated 1998).

On to secretin (ligand), for which, in experiment [1], the concentration at which 125I-VIP binding was displaced was found to be 3.8 µM.

B1: PACAP-38 (pituitary adenylate cyclase activating polypeptide, 38-amino acid peptide) (ligand)
peptide: HSDGIFTDSYSRYRKQMAVKKYLAAVLGKRYKQRVKNK
modifications: ends and bridges not checked
Turning to B1, the IC50 in experiment [2] turned out to be 1.8 nM; in experiment [3] it was 4.1 nM.

B2: vasoactive intestinal polypeptide (VIP) (ligand)
peptide: HSDAVFTDNYTRLRKQMAVKKYLNSILN
On to B2, for which the values for the IC50 in experiment [3] and in experiment [4] were approximately 9 nM and approximately 5.8 nM, respectively.

B3: PACAP-27 (pituitary adenylate cyclase activating polypeptide, 27-amino acid peptide) (ligand)
peptide: HSDGIFTDSYSRYRKQMAVKKYLAAVL
modifications: ends and bridges not checked
On to B3, for which the IC50 in experiment [5] is approximately 37 nM.

B4: glucagon-like peptide-II (GLP-II) (ligand)
peptide: HADGSFSDEMNTILDNLAARDFINWLIQTKITD
For B4, the binding result in experiment [1] is reported as “no binding”.

B5: glucagon-like peptide-I (GLP-1) (ligand)
peptide: HAEGTFTSDVSSYLEGQAAKEFIAWLVKGR
In the case of B5, the binding result in experiment [1] is reported as “no binding”.

Broadly, the IC50 is the concentration that inhibits the measured activity by half.
